Results reported in paper PMC4747905.

Experiments:
[1] = target: BRCT-Ab2p complex (UniProt P38398); experiment: native MS; peak fractions from gel filtration, 15 μM protein, 300 mM ammonium acetate pH 7.6, nano-electrospray
[2] = target: BRCA1 BRCT domains (UniProt P38398); experiment: small angle X-ray scattering; details: reference: Ab1p (pS406 only); sites S404
[3] = target: BRCA1 BRCT domains (UniProt P38398); experiment: native mass spectrometry, 15 µM; details: reference: Ab1p (pS406 only); sites S404
[4] = target: BRCA1 BRCT domains (UniProt P38398); experiment: size exclusion chromatography, 1 mg/ml; details: sites S406
[5] = target: BRCA1 BRCT domains (UniProt P38398); experiment: size exclusion chromatography, 1:1 versus 2:2 complex; details: reference: Ab1p (pS406 only); sites S404

Substance: BRCT-Ab2p complex (from UniProt P38398 1646-1859)
- stoichiometry N [1]: 2

Substance: Abraxas 399-409 (from UniProt Q6UWZ7) Ab2p (pS404 pS406)
- binding against the reference [2]: stronger
- binding against the reference [3]: stronger
- binding against the reference ([4]; reference: pS404-only peptide): gained
- binding against the reference [5]: stronger

Substance: Abraxas 399-409 (from UniProt Q6UWZ7) pS406 peptide (Ab1p)
- binding against the reference ([4]; reference: unphosphorylated peptide): gained
